Measurements reported in US20110118447A1.

Tests used:
[1] = target: binding partner (antigen) of C5A (XPA23); test: Biacore, K-off, fold vs original
[2] = target: binding partner of C5A (XPA23); test: Biacore

Binder | fold difference in affinity vs original [1] [fold] | fold difference in affinity vs original [2] [fold] | fold affinity vs original [2] [fold]
C5A (XPA23) VH I51A (antibody, V domains shown) VH: EVQLLESGGGLVQPGGSLRLSCAASGFTFSKYFMFWVRQAPGKGLEWVSVASPSGGMTRYADSVKGRFTISRDNSKNTLYLQMNSLRAEDTAVYYCARVGYGGNSDYWGQGTLVTVSS VL: DIQMTQSPSSVSASVGDRLTIICRASQDINRWLAWYQQTPGNAPKLLIHSATSLQSGVPSRFSGSGSGTDFTLTINSLQPEDFATYYCQQADSFPLTFGGGTKVEIK | 1.04 | 1.04 | –
C5A (XPA23) VH P53V (antibody, V domains shown) VH: EVQLLESGGGLVQPGGSLRLSCAASGFTFSKYFMFWVRQAPGKGLEWVSVISVSGGMTRYADSVKGRFTISRDNSKNTLYLQMNSLRAEDTAVYYCARVGYGGNSDYWGQGTLVTVSS VL: DIQMTQSPSSVSASVGDRLTIICRASQDINRWLAWYQQTPGNAPKLLIHSATSLQSGVPSRFSGSGSGTDFTLTINSLQPEDFATYYCQQADSFPLTFGGGTKVEIK | 1.1 | 1.1 | –
C5A (XPA23) VH P53G (antibody, V domains shown) VH: EVQLLESGGGLVQPGGSLRLSCAASGFTFSKYFMFWVRQAPGKGLEWVSVISGSGGMTRYADSVKGRFTISRDNSKNTLYLQMNSLRAEDTAVYYCARVGYGGNSDYWGQGTLVTVSS VL: DIQMTQSPSSVSASVGDRLTIICRASQDINRWLAWYQQTPGNAPKLLIHSATSLQSGVPSRFSGSGSGTDFTLTINSLQPEDFATYYCQQADSFPLTFGGGTKVEIK | 0.02 | 0.02 | –
C5A (XPA23) VH P53L (antibody, V domains shown) VH: EVQLLESGGGLVQPGGSLRLSCAASGFTFSKYFMFWVRQAPGKGLEWVSVISLSGGMTRYADSVKGRFTISRDNSKNTLYLQMNSLRAEDTAVYYCARVGYGGNSDYWGQGTLVTVSS VL: DIQMTQSPSSVSASVGDRLTIICRASQDINRWLAWYQQTPGNAPKLLIHSATSLQSGVPSRFSGSGSGTDFTLTINSLQPEDFATYYCQQADSFPLTFGGGTKVEIK | 0.04 | 0.04 | –
C5A (XPA23) VH P53A (antibody, V domains shown) VH: EVQLLESGGGLVQPGGSLRLSCAASGFTFSKYFMFWVRQAPGKGLEWVSVISASGGMTRYADSVKGRFTISRDNSKNTLYLQMNSLRAEDTAVYYCARVGYGGNSDYWGQGTLVTVSS VL: DIQMTQSPSSVSASVGDRLTIICRASQDINRWLAWYQQTPGNAPKLLIHSATSLQSGVPSRFSGSGSGTDFTLTINSLQPEDFATYYCQQADSFPLTFGGGTKVEIK | 0.05 | 0.05 | –
C5A (XPA23) VH P53I (antibody, V domains shown) VH: EVQLLESGGGLVQPGGSLRLSCAASGFTFSKYFMFWVRQAPGKGLEWVSVISISGGMTRYADSVKGRFTISRDNSKNTLYLQMNSLRAEDTAVYYCARVGYGGNSDYWGQGTLVTVSS VL: DIQMTQSPSSVSASVGDRLTIICRASQDINRWLAWYQQTPGNAPKLLIHSATSLQSGVPSRFSGSGSGTDFTLTINSLQPEDFATYYCQQADSFPLTFGGGTKVEIK | 0.08 | 0.08 | –
C5A (XPA23) VH I51L (antibody, V domains shown) VH: EVQLLESGGGLVQPGGSLRLSCAASGFTFSKYFMFWVRQAPGKGLEWVSVLSPSGGMTRYADSVKGRFTISRDNSKNTLYLQMNSLRAEDTAVYYCARVGYGGNSDYWGQGTLVTVSS VL: DIQMTQSPSSVSASVGDRLTIICRASQDINRWLAWYQQTPGNAPKLLIHSATSLQSGVPSRFSGSGSGTDFTLTINSLQPEDFATYYCQQADSFPLTFGGGTKVEIK | 0.79 | 0.79 | –
C5A (XPA23) VH I51V (antibody, V domains shown) VH: EVQLLESGGGLVQPGGSLRLSCAASGFTFSKYFMFWVRQAPGKGLEWVSVVSPSGGMTRYADSVKGRFTISRDNSKNTLYLQMNSLRAEDTAVYYCARVGYGGNSDYWGQGTLVTVSS VL: DIQMTQSPSSVSASVGDRLTIICRASQDINRWLAWYQQTPGNAPKLLIHSATSLQSGVPSRFSGSGSGTDFTLTINSLQPEDFATYYCQQADSFPLTFGGGTKVEIK | 0.99 | 0.99 | –
C5A (XPA23) VH P53W (antibody, V domains shown) VH: EVQLLESGGGLVQPGGSLRLSCAASGFTFSKYFMFWVRQAPGKGLEWVSVISWSGGMTRYADSVKGRFTISRDNSKNTLYLQMNSLRAEDTAVYYCARVGYGGNSDYWGQGTLVTVSS VL: DIQMTQSPSSVSASVGDRLTIICRASQDINRWLAWYQQTPGNAPKLLIHSATSLQSGVPSRFSGSGSGTDFTLTINSLQPEDFATYYCQQADSFPLTFGGGTKVEIK | 0.05 | – | 0.05
C5A (XPA23) VH P53F (antibody, V domains shown) VH: EVQLLESGGGLVQPGGSLRLSCAASGFTFSKYFMFWVRQAPGKGLEWVSVISFSGGMTRYADSVKGRFTISRDNSKNTLYLQMNSLRAEDTAVYYCARVGYGGNSDYWGQGTLVTVSS VL: DIQMTQSPSSVSASVGDRLTIICRASQDINRWLAWYQQTPGNAPKLLIHSATSLQSGVPSRFSGSGSGTDFTLTINSLQPEDFATYYCQQADSFPLTFGGGTKVEIK | 0.05 | – | 0.05
C5A (XPA23) VH I51F (antibody, V domains shown) VH: EVQLLESGGGLVQPGGSLRLSCAASGFTFSKYFMFWVRQAPGKGLEWVSVFSPSGGMTRYADSVKGRFTISRDNSKNTLYLQMNSLRAEDTAVYYCARVGYGGNSDYWGQGTLVTVSS VL: DIQMTQSPSSVSASVGDRLTIICRASQDINRWLAWYQQTPGNAPKLLIHSATSLQSGVPSRFSGSGSGTDFTLTINSLQPEDFATYYCQQADSFPLTFGGGTKVEIK | 0.9 | – | 0.9

Results, then the binder that gave them:

fold difference in affinity vs original [1] [fold] | fold difference in affinity vs original [2] [fold] | fold affinity vs original [2] [fold] | Binder
0.03 | 0.03 | – | C5A (XPA23) VH S52G (antibody, V domains shown) VH: EVQLLESGGGLVQPGGSLRLSCAASGFTFSKYFMFWVRQAPGKGLEWVSVIGPSGGMTRYADSVKGRFTISRDNSKNTLYLQMNSLRAEDTAVYYCARVGYGGNSDYWGQGTLVTVSS VL: DIQMTQSPSSVSASVGDRLTIICRASQDINRWLAWYQQTPGNAPKLLIHSATSLQSGVPSRFSGSGSGTDFTLTINSLQPEDFATYYCQQADSFPLTFGGGTKVEIK
0.91 | 0.91 | – | C5A (XPA23) VH S54L (antibody, V domains shown) VH: EVQLLESGGGLVQPGGSLRLSCAASGFTFSKYFMFWVRQAPGKGLEWVSVISPLGGMTRYADSVKGRFTISRDNSKNTLYLQMNSLRAEDTAVYYCARVGYGGNSDYWGQGTLVTVSS VL: DIQMTQSPSSVSASVGDRLTIICRASQDINRWLAWYQQTPGNAPKLLIHSATSLQSGVPSRFSGSGSGTDFTLTINSLQPEDFATYYCQQADSFPLTFGGGTKVEIK
0.05 | 0.05 | – | C5A (XPA23) VH S52P (antibody, V domains shown) VH: EVQLLESGGGLVQPGGSLRLSCAASGFTFSKYFMFWVRQAPGKGLEWVSVIPPSGGMTRYADSVKGRFTISRDNSKNTLYLQMNSLRAEDTAVYYCARVGYGGNSDYWGQGTLVTVSS VL: DIQMTQSPSSVSASVGDRLTIICRASQDINRWLAWYQQTPGNAPKLLIHSATSLQSGVPSRFSGSGSGTDFTLTINSLQPEDFATYYCQQADSFPLTFGGGTKVEIK
1.43 | 1.43 | – | C5A (XPA23) VH S54G (antibody, V domains shown) VH: EVQLLESGGGLVQPGGSLRLSCAASGFTFSKYFMFWVRQAPGKGLEWVSVISPGGGMTRYADSVKGRFTISRDNSKNTLYLQMNSLRAEDTAVYYCARVGYGGNSDYWGQGTLVTVSS VL: DIQMTQSPSSVSASVGDRLTIICRASQDINRWLAWYQQTPGNAPKLLIHSATSLQSGVPSRFSGSGSGTDFTLTINSLQPEDFATYYCQQADSFPLTFGGGTKVEIK
1 | 1 | – | C5A (XPA23) VH S54A (antibody, V domains shown) VH: EVQLLESGGGLVQPGGSLRLSCAASGFTFSKYFMFWVRQAPGKGLEWVSVISPAGGMTRYADSVKGRFTISRDNSKNTLYLQMNSLRAEDTAVYYCARVGYGGNSDYWGQGTLVTVSS VL: DIQMTQSPSSVSASVGDRLTIICRASQDINRWLAWYQQTPGNAPKLLIHSATSLQSGVPSRFSGSGSGTDFTLTINSLQPEDFATYYCQQADSFPLTFGGGTKVEIK
0.05 | 0.05 | – | C5A (XPA23) VH S52A (antibody, V domains shown) VH: EVQLLESGGGLVQPGGSLRLSCAASGFTFSKYFMFWVRQAPGKGLEWVSVIAPSGGMTRYADSVKGRFTISRDNSKNTLYLQMNSLRAEDTAVYYCARVGYGGNSDYWGQGTLVTVSS VL: DIQMTQSPSSVSASVGDRLTIICRASQDINRWLAWYQQTPGNAPKLLIHSATSLQSGVPSRFSGSGSGTDFTLTINSLQPEDFATYYCQQADSFPLTFGGGTKVEIK
0.04 | 0.04 | – | C5A (XPA23) VH S52V (antibody, V domains shown) VH: EVQLLESGGGLVQPGGSLRLSCAASGFTFSKYFMFWVRQAPGKGLEWVSVIVPSGGMTRYADSVKGRFTISRDNSKNTLYLQMNSLRAEDTAVYYCARVGYGGNSDYWGQGTLVTVSS VL: DIQMTQSPSSVSASVGDRLTIICRASQDINRWLAWYQQTPGNAPKLLIHSATSLQSGVPSRFSGSGSGTDFTLTINSLQPEDFATYYCQQADSFPLTFGGGTKVEIK
1 | 1 | – | C5A (XPA23) VH S54V (antibody, V domains shown) VH: EVQLLESGGGLVQPGGSLRLSCAASGFTFSKYFMFWVRQAPGKGLEWVSVISPVGGMTRYADSVKGRFTISRDNSKNTLYLQMNSLRAEDTAVYYCARVGYGGNSDYWGQGTLVTVSS VL: DIQMTQSPSSVSASVGDRLTIICRASQDINRWLAWYQQTPGNAPKLLIHSATSLQSGVPSRFSGSGSGTDFTLTINSLQPEDFATYYCQQADSFPLTFGGGTKVEIK
0.86 | 0.86 | – | C5A (XPA23) VH S54I (antibody, V domains shown) VH: EVQLLESGGGLVQPGGSLRLSCAASGFTFSKYFMFWVRQAPGKGLEWVSVISPIGGMTRYADSVKGRFTISRDNSKNTLYLQMNSLRAEDTAVYYCARVGYGGNSDYWGQGTLVTVSS VL: DIQMTQSPSSVSASVGDRLTIICRASQDINRWLAWYQQTPGNAPKLLIHSATSLQSGVPSRFSGSGSGTDFTLTINSLQPEDFATYYCQQADSFPLTFGGGTKVEIK
